The results in this text go back to PMC4844956.

For test [1], the target named is HEV ORF3 protein fused to the GAL4 binding domain. Put plainly: yeast two-hybrid quantitative α-galactosidase assay. The conditions noted are these: triplicate samples, parent: est. 11, read off a plot.
Test [2] deals with HEV methyltransferase fused to the GAL4 binding domain (UniProt P33424). Described as above. The conditions noted are these: triplicate samples, parent: est. 8.7, read off a plot.
In test [3] the target is GST fused X-domain (Hepatitis E virus) (UniProt P33424). Put plainly: pull-down; ~500 fmol ORF3-His or ~500 fmol Met-His alone with 500 fmol GST-X; bound fraction against input by band intensity.
The target is the same in test [4]. Put plainly: pull-down; competition: ORF3-His and Met-His together with 500 fmol GST-X, equimolar (~500 fmol) or with 1 and 2 pmol of one of them.

As for “HEV X-domain (macro domain) fused to the GAL4 activation domain (from UniProt P33424) I66E; I67E”, in test [1] (P=0.002 vs wild type X), the response (normalized α-gal units) came to 6.2.
For “HEV X-domain (macro domain) fused to the GAL4 activation domain (from UniProt P33424) L94R”, the figures for the response (normalized α-gal units) in test [1] (P=0.056 vs wild type X) and in test [2] (P=0.82 vs wild type X) were 13 and 8.3, respectively.
For the substance “HEV X-domain (macro domain) fused to the GAL4 activation domain (from UniProt P33424) L101E; L102E”, the response (normalized α-gal units) in test [1] came out at 3.2; in test [2], 1.9.
For “HEV X-domain (macro domain) fused to the GAL4 activation domain (from UniProt P33424) R93E”, the response (normalized α-gal units) in test [1] (P=0.077 vs wild type X) is 13; in test [2] (P=0.51 vs wild type X), 7.6.
Regarding “HEV X-domain (macro domain) fused to the GAL4 activation domain (from UniProt P33424) R93E; L101E; L102E”, the values for the response (normalized α-gal units) in test [1] and in test [2] were 2.9 and 1.6, respectively.
As for “His-tagged ORF3 (pRSET ORF3) (from UniProt O90299 1-114) (natural protein)”, in test [3], the percent of input pulled down turned out to be 25%. In addition, in test [4], the percent of input in the bound fraction with equimolar Met-His present amounted to 10%.
